Laboratory results reported in the nanobody polyreactivity screen of Harvey et al. (2022).

Test: yeast display, Sf9 membrane polyspecificity reagent, FACS + sequencing; frameworks hold sequencing errors
How it was run: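 After 36–48 hours of galactose induction, yeast (Saccharomyces cerevisiae BJ5465) displaying a synthetic nanobody library were stained at 4 °C for 1 hour with 10% biotinylated, detergent-solubilized Sf9 membrane reagent. Streptavidin microbeads enriched the stained cells before FACS sorting into low and high (top ~1%) gates on anti-HA and streptavidin fluorescence. Each clone's polyreactivity label reflects its gate of origin.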

Sequence	polyreactivity (PSR sort gate)
QVQLVESGGALVQAGGSLRLSCAASGYTFSKYAMGWYRQAPGKERELVAAISKRGGSTSYADSVKGRFTISRDNAKNTVYLQMNILKPEDTAVYYCNAREWSRTFDYWGQGSQVTVSS	high polyreactivity
QVQLVESGGGLVQAGGSLRLSCAASGSTFFPYAMGWYRQAPGKERELVAAIRWSGGRTYYADSVKGRFTISRDNAKNTVYLQMNSLKPEDTAVYYCAADKYLYYDYWGQGTQVTVSS	high polyreactivity
QVQLVESGGGLVQAGGSLRLSCAASGSIFASYALGWYRQAAGKEREFVAAISQSGSRTYNADSVKGRFTISRDNANNTVSLHMNSLKPEDTAVYYCNAKRGTWNYDYWGQGTQVTVSS	high polyreactivity
QVQLVESGGGLVQAGGSLRLSCSASGRIFSRYAMGWYRQAPGKERELVATISSGGGTYYADSVKGRFTISRDNAKNTVYLQMNSLKPEDTAVYYCATRYPRKLRVPYDYWGQGTQVTVSS	high polyreactivity
QVQLVESGGGLVQAGGSLRLSCAASGSTFDVYAMGWYRQATGKERELVAVINTSGTRTYYADSVKGRFTISRDNSKNTVYLQMISLKPEDTAVYYCNAGGHLEMNYWGEGTQVTVSS	low polyreactivity
QVQLVESGGGLVQAGGSLRLSCAASGRIFARKAMGWYRQAPGKEGELVARIRASGGSTYYADSVKGRFTISRDNAKNTVYLQMNSLKPEDTAVYYCNARTSSPYRVDYWGQGTQVTVSS	high polyreactivity
QVQLVESGGGLVQAGGSLRLSCAASGIIFYYYTMGWYRQAPGKERELVAAISFSGSNTYYADSVKGRFTISRDNAKNTVYLQMNSLKPEDTAVYYCAARARKDSNRRTYGYWGQGTQVTVSS	high polyreactivity
QVQLVESGGGLVQAGGSLRLSCAASGSTFPTNAMGWYRQAPGKERELVAGITEGGSSTYYADSVKGRFTISRDNAKNTVYLQMTSLKPEDTAVYYCAAAARAGLKRYYYWGQGTQVTVSS	high polyreactivity
QVQLVESGGGLVQAGGSLRLSCADSGRTFEPYTMGWYRQAPGKERELVAAISWRGGSTYADSVKGRFTISRDNAKNTVYLQMNSLKPEDTAVYYCAAEPYWHLDSQYFGREYDYWGQGTQVTVSS	low polyreactivity
QVQLVESVGGLVQAGGSLRLSCAASGSIISFNAMGWYRQAPRKERELVASISRNGGSSYYADSVKGRFTISRDNAKNTVYLQMNSLKPEDTAVYYCAVKVRNRRYGYWGQGTQVTVSS	high polyreactivity
QVQLVESGGGLVQAGGSLRLSCAASGIAYTYNAMGRYRQAPGKERELVASISRTGGSTRYADSVKGRFTISRDNAKYTVYLQMNSLKPEDTAVYYCAALSWRYVKYRFDYWGQGTQVTVSS	high polyreactivity
QVQLVESGGGLVQAGGSLRLSCAASGNTFPRYAMGWYRQAPGKERELVASISWSGGSTYYADSVKGRFTISRDNAKNTVYLQMNSLKPEDTAVYYCNARRAYRAWYYPYDYWGQGTQVTVSS	high polyreactivity
QVQHVESGAGLVQAGGSLRLSCAASGSTFFRANAMGLDRQEPGKERELVAAITGSGGRTYYADSVKGRFTISRDNAKNTVYLQMNSLKPEDTAVYYCATHGVSRPYDYWGPGTQVTVSS	high polyreactivity
QVQLVESGGGLVQAGGSLRLSGAASGSTFDIYAMGWYRQPPGKESELVAAITVSGGSTYYADSVKGSFTISRDNAKNTVYLQMNSLKPEDTAVYYCNADWSGWQGWYNYWGQGTQVTVSS	low polyreactivity
QVQLVESGGGLVQAGGSLRLSCAASGIIFLVYARGWYRKAPGKVRELVAGISGSATSTNYADSVKGRFTISRDNAKNTVFLQMNSLKPEDTAVYYCAPEPDHVADSHSGYDYWGQGTQVTVSS	low polyreactivity
QVQLVESVGGLVQAGGSLRLSCAASGNIFRGYTMGWYRQAPGKESELVATITWTGVSTFYADSVKGRFTISRDNAKNTVYLQMNSLKPEDTAVYYCAAYYPSHDYSGFWSDTYEYWGQGTQVTVSS	low polyreactivity
QVQLVESGGGLVQAGGSLRLSCAASGRIFYYYAMGWYRQAPGKEREFVAAISGSGGTTYYADSVKGRFTISLDNAKNTVYLQMNSLKPEDTAVYYCNAKAVRGRYVWFDYWGQGTQVTVSS	high polyreactivity
QVQLVESGGGLVQAGGSLRLSCASSGFTFTSYAMGWYRQAPGKERELVAAISSSGGSTYYADSVKGRFTISRDNAKNTVYLQMNSLKPEDTAVYYCAAEYGYGEMDSWGQGTQVTVSS	high polyreactivity
QVQLVESGGRLLQEGGSLRLSCAASGLIVTYYTMGWYRPAPGKERELVASIDSGGSTNYADSVQGRFTISRDNAKNTVYLQLNCLKPEDTAVEFCAADYDGWFYEMGYWGQGTQVTVSS	low polyreactivity
QVQLVESGGVLVQAGGSLRLSCAASGSIFILYAMGWYRQAPGKEREFVAAITYRGGSTKYADSVKGRFTISRDNAKNNVYLQMNRLKPEDTAVYYCAAGGYWRSPWGSVSRYGYWGQGTQVTVSS	high polyreactivity
QVQLVESGGGLVQAGGSLRLSCAASGSILTINAMGWYRQAPGKERELVARITISSGSTYYADSVKGRFTISRDNAKNTVYLQMNSLKPEDTAVYYCAVDTSYSDRYDYWGQGTQVTVSS	low polyreactivity
QVQLVESGGGLVQAGGSLRLSCAASGLIFYRNAMGWYRQAPGKERELVAAIRFSTGSTYYADSVKGRFTISRDNAKNTVYLEMNSLKPEDTAVYYCAAALPGYGDYYYWGQGTQVTVSS	high polyreactivity

Sequence	polyreactivity (PSR sort gate)
QVQLVESGGGLVQAGGSLRLSCAASGSIFDGYAMGWDRQAPGKEREFVATITVSGGRTYYADSVKGRFTISRDNAKTTVYLQRNSLKPEDTAVYYCAARKVPLIRSSTVRQYYYWGQGTQVTVSS	high polyreactivity
QVQLVESGGGLVQAGGSLRLSCAASVGIFIYNAMGWYRQAPGKEREFVAAINISGGNTYYADSVKGRFTISRDNAKNTVFLQMNSLKPEDTGVYYCAARYASCWWIRYYYWGQGTQVTVSS	high polyreactivity
QVQLVESGGGLVQAGGSLRLICAASGSIFNGYAMGWYSQAPGKERELVADIRSGGSTYYADSVKGRFTISRDNAKNTVYLQMNSLKPEDTAVYYCAADTITDGYDYWGQGTQVTVSS	low polyreactivity
QVQLVESGGGLVQAGGSLRLRCAASGSIFFRYAMGWYRQAPGKERELVANISSGGGNTYYADSVKGRFTISRDNAKNTVYLQMNSLKPEDTAVYYCARRLATRGHTYDYWGQGTQVTVSS	low polyreactivity
QVQLVESGGGLVQAGGSLRLSCAASGSTFIVNAMGWYRQAPGKERELVAAITEDGDTTYYADSVKGRFTISRDHAKKTVYLQMNSLKPEDTAVYYCAARTYRGLADDYWGQGTQVTVSS	high polyreactivity
QVQLVESGGGLVQAGGSLRLSCAASGYIFGNYAMGWYRQAPGKERELVAAISKSGVTTYYADSVKGRFTISRDNAKNTVYLQMNSLKPEDTAVYYCNARSWRPINARYNEYDYWGQGTQVTVSS	low polyreactivity
QVQLVESGGGLVQAGGSLRLSCAASGFIFSENAMGLYRPAPGKERELVAAISDAGGSTYYADSVKGRFTISRDNAKNTVYLQMNSLKPEDTAVYYCNAVYHPKGPSGYGYWGQGTQVTVSS	low polyreactivity
QVQLVESGGGLVQAGGSLRLSCAASGSIFALYAMGWYRQAPGKERELVAAISYRGGRTYYADSVKGRFTISRDNAKNTVYLQMYSLKPEDTAVYNCATDFPGKFDYWGQGTQVTVSS	low polyreactivity
QVQLVESGGGLVQAGGSLRLSCAASGSIFGANAMGWYRQAPGKERELVAAISTRGGRTYYADSVKGRFTISRDNAKNTVYLQMNSLKPEDTAVYYCATSGGRPYKYEYWGQGTQVTVSS	high polyreactivity
QVQLVESGGGLVQAGGSLRLSCAASGFTFDNYAMGWYRQAPGKERELVAAISSGGGRTYYADSVKGRFTISRDNAKNTVYLLMNSLKPEDTAVYYCAAVTLYKRYDYWGQGTQVTVSS	high polyreactivity
QVQLVESGGGLVQAGGSLRLTCAASGGTFVYNAMGWYRKAPGKERELVAAISRGGTRTYYADSVKGRFTISRDNAKNTVYLQMNSLKPEDTAVYYCNAEVNTNYRIADYDYWGQGTQVTVSS	high polyreactivity
QVQLVESGGGLVQAGGSLRLSCAASGLTFADYAMGWYRQAPGKERELVAAISSSDTSTYYADSVKGRFTISRDNAKNTVYLQMNSLKPEDTAVYYCAADEGYVWPYYGWGFGKYDYWGQGTQVTVSS	low polyreactivity
QVQLVESGGGLVQAGGSLRLSCAASGFIFYINAMGWYRQAPGKERELVAAISTSGGSTYYADSVKGRFTISRDNAKNTVYLQMNSLKPEDTAVYYCAAEGSYWYYSYDYWGQGTQVTVSS	high polyreactivity
QVQLVESGGGLGQAGGSLRLSCAASGFIFGLNAMGWYRQAPGKERELVAAISSIGGSTYYADSVKGRFTISRDNAMNTVYLQMNSLIPEDTAVYYCAKRYGGRRSWYDYWGQGSQVTVSS	high polyreactivity
QVQLVESGGGLVQAGGSLRLSCAASGSIFGLYAMGWYRQAPGKERELVAAISTSSGRTYYADSVKGRFTISRDNAKNTVYLQMNSLKPEDTAVYYCAASGAWWSLHYAGDYWGQGTQVTVSS	high polyreactivity
QVQLVESGGGLVQAGGSLRLSCAASGRIFYFYAMGWYRQAPGKERELVAAISTSGGSTYYPDSVKGRFTISRDNAKNTVYLQMNSLKQEDTAVYYCAARFRYYGSEYDYWGQGTQVTVSS	low polyreactivity
QVQLVESGGGLVQAGGSLRLSCADSGSIFKYYVMGWYRQAPGKERELVADITSGGSTKYADSVKGRFTISRDNAKNTVYLQMNSLKPADTAVYYCAASWWYEIFDYWGQGTQVTVSS	low polyreactivity
QVQLVESGGGLVQAGGSLRLSCAASGSTFDPNAMGWYRQARGKERELVAAISYTGGRTYYADSVKGRFTISRDNAKNTVYLQMNSLKPEDTAVYYCAVLVVGSTTQDEPYFSGVEHDYWGQGTQVTVSS	low polyreactivity
QVQLVESGGGLLQAGGSLRLSCAASGINFSKYAMGWYRQAPGTERELVAVISASGGGTYYADSVKGRFTISRDNAKNTVYLQMNSLKPEDTAVYFCAADSSDVYDYWGQGTQVTVSS	high polyreactivity
QDQLVESGGCLDQAGCSLRLSCAASGSIFYYNAMGWSRQAHGKESEFVATITNSGGRTYDADSVKGRFTISRDNAKNSVYLQMNSLKPEDTAVYYCNADVHRFSGNGYRYYYWGQGTQVTVSS	low polyreactivity
QVQLVESGGGLVQAGGSRRLSCAASGRIFGWYAMGWYRQAPGKERELVAAISRGGTRTNYADSVKGRFTISRDNAKNTGYLKMNSLKPEDTAVYYCASESFYSQFDYWGQGSQVTVSS	high polyreactivity
